Data published in the supplement of paper PMC7125110.
± gives the standard error. Variants at the floor of the assay were thinned out.

B1: glmS ribozyme (parent)
chain: AUAAAAGCGCCAGAACUACAGAAAUGUAGUUGACGAGGAGGAGGUUUAUCGAAUUUUCGGCGGAUGCCUCCAAA

What was measured:
Details in all cases: with glucosamine-6-phosphate
[1] = variants of: B1; experiment: self-cleavage kobs at 160 uM GlcN6P; higher = faster cleavage; RNA array
Method in brief: (§1)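 Glucosamine-6-phosphate (40 μM to 10 mM) in HEPES/KCl/Mg(OAc)2 buffer was flowed over sequenced MiSeq chips, and tiles were imaged over ~14 h. Barcoded ribozyme variants there had been transcribed in situ by E. coli RNA polymerase and were tracked through a hybridised Cy3 probe at 37 °C. One- or two-exponential decay fits to per-tile medians, normalised to baseline and to non-cleaving reference variants, gave kobs. kcat and KM came from weighted Michaelis–Menten fits across concentrations.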

[2] = variants of: B1; experiment: self-cleavage kobs at 2500 uM GlcN6P; higher = faster cleavage; RNA array
Method in brief: as §1

[3] = variants of: B1; experiment: self-cleavage kobs at 10000 uM GlcN6P; higher = faster cleavage; RNA array
Method in brief: as §1

[4] = variants of: B1; experiment: self-cleavage kobs at 640 uM GlcN6P; higher = faster cleavage; RNA array
Method in brief: as §1

Row | Variant | self-cleavage kobs at 160 uM GlcN6P [1] [s⁻¹] | self-cleavage kobs at 2500 uM GlcN6P [2] [s⁻¹] | self-cleavage kobs at 10000 uM GlcN6P [3] [s⁻¹] | self-cleavage kobs at 640 uM GlcN6P [4] [s⁻¹]
1 | G9C A12G | < 1e-05 | < 1e-05 | < 1e-05 | 
2 | A14G G35A | < 1e-05 | < 1e-05 | < 1e-05 | < 1e-05
3 | C10A A52U C68A | 7.21e-05 ± 2.5e-05 |  |  | 
4 | G44C C50U U54C | < 1e-05 |  |  | < 1e-05
5 | C50A G51C U55C G60U | < 1e-05 |  | < 1e-05 | 
6 | G13C C50G | 0.00119 ± 0.00034 |  |  | 
7 | G43C G60C C68U | < 1e-05 |  |  | < 1e-05
8 | A42G U46G U65C C68U | < 1e-05 |  |  | 
9 | G7U G13U A15U G40C G41A A52U | < 1e-05 | < 1e-05 |  | < 1e-05
10 | A6C A36G C50U C67U | < 1e-05 | < 1e-05 |  | 
11 | A33U G38U G41C G66U | < 1e-05 | < 1e-05 |  | 
12 | U31G G41U U47G G62U A64U C70G | < 1e-05 |  |  | < 1e-05
13 | C8A C50U U55C | < 1e-05 |  |  | < 1e-05
14 | U49C G51C | < 1e-05 | < 1e-05 |  | < 1e-05
15 | A6G G40C C50G | < 1e-05 | < 1e-05 |  | 
16 | C10A C11G A12C G13U | < 1e-05 | < 1e-05 |  | 
17 | A33U G38A A39G | < 1e-05 |  |  | < 1e-05
18 | C34G A64U C67U | < 1e-05 |  |  | < 1e-05
19 | G38C G59C C67G | < 1e-05 | < 1e-05 |  | 
20 | C34G G63A | < 1e-05 | < 1e-05 | < 1e-05 | < 1e-05
21 | A14C U30G A36U A53G | < 1e-05 | < 1e-05 |  | < 1e-05
22 | C61A A64C | < 1e-05 | < 1e-05 | < 1e-05 | < 1e-05
23 | G9C G37A | < 1e-05 | < 1e-05 |  | < 1e-05
24 | G35A C68U | < 1e-05 | < 1e-05 |  | 
25 | C10U A33U G62U C71A | < 1e-05 | < 1e-05 | < 1e-05 | < 1e-05
26 | U31C A64U U65A | < 1e-05 |  |  | < 1e-05
27 | A39C G41U U46G | < 1e-05 |  |  | 
28 | A39U G41A G62U | < 1e-05 | < 1e-05 |  | 

Row | Variant | self-cleavage kobs at 160 uM GlcN6P [1] [s⁻¹] | self-cleavage kobs at 2500 uM GlcN6P [2] [s⁻¹] | self-cleavage kobs at 10000 uM GlcN6P [3] [s⁻¹] | self-cleavage kobs at 640 uM GlcN6P [4] [s⁻¹]
29 | A53G C58A C68G | 0.000121 ± 4.6e-05 | 0.000107 ± 2.5e-05 |  | 
30 | U31A G43A | < 1e-05 |  | 2.99e-05 ± 9.3e-06 | < 1e-05
31 | G51C G60A U69A | < 1e-05 |  |  | 
32 | C34A G66U | < 1e-05 |  | < 1e-05 | < 1e-05
33 | G37U A42U A53G | < 1e-05 | < 1e-05 |  | 
34 | C8U C11U C16G U55G | < 1e-05 |  |  | < 1e-05
35 | A6G U30G G59U | < 1e-05 | < 1e-05 |  | < 1e-05
36 | G29A U31G G62A | < 1e-05 |  |  | 
37 | C10U A42C G63A | < 1e-05 | < 1e-05 |  | < 1e-05
38 | G9U A48U U57A | < 1e-05 | < 1e-05 | < 1e-05 | 
39 | A6G A36G G44U C61U | < 1e-05 | < 1e-05 |  | < 1e-05
40 | A12U G35A G40U | < 1e-05 | < 1e-05 |  | < 1e-05
41 | G7C G9U A36G C68A | < 1e-05 | < 1e-05 |  | < 1e-05
42 | A6C C8G G35C C58U C67G | < 1e-05 | < 1e-05 |  | 
43 | C8A A33U | < 1e-05 | < 1e-05 | < 1e-05 | 
44 | A12G G41U G51C C71A | < 1e-05 | < 1e-05 |  | < 1e-05
45 | C10A G40A C71A | < 1e-05 |  |  | < 1e-05
46 | G32U C34A G40C U57A G62U | < 1e-05 |  |  | 
47 | U46C A53G U54C | 0.000138 ± 2.9e-05 | 0.00116 ± 0.00021 |  | 0.000673 ± 0.00011
48 | A14U U31G C67A | 7.69e-05 ± 2.3e-05 | 0.000746 ± 0.00014 |  | 0.000354 ± 7.7e-05
49 | G41C A48G G63U | < 1e-05 | < 1e-05 |  | < 1e-05
50 | C16G G62C A64U | < 1e-05 |  |  | 
51 | C16G A52G U69G | 9.5e-05 ± 3e-05 | 0.000143 ± 3.9e-05 |  | 
52 | G44A U56A C70U | < 1e-05 |  |  | < 1e-05
53 | A6G C8G U31A G32U | < 1e-05 |  |  | 
54 | A33G G37A A39C G63C C68G | < 1e-05 |  |  | < 1e-05
55 | A15G U49G G63U C67A | < 1e-05 |  |  | < 1e-05
